Data published in patent US20200291070A1.
Numbered stars: 1 amine (or outer) side, 2 acyl side, 3 side chain; on linkers, the order of the positions; unused ones are H or OH. Bridge positions count the residues as written; N and C are the ends. Square brackets hold non-standard residues; d marks the D form. Ends that are not written are not given here. Tm = trimesic acid, bicyclized on Tm at the N-terminus; Trimesoyl = O=C(c1cc(C(=O)[*:2])cc(C(=O)[*:3])c1)[*:1]; 2Nal = N[C@@H](Cc1ccc2ccccc2c1)C(=O)O; Dap = NC[C@H](N)C(=O)O; βAla = NCCC(=O)O

How the values were obtained:
[1] = biological target: Recombinant GST-NEMO (from plasmid pGEX4T3-NEMO(1-196)) (UniProt Q9Y6K9); assay: HTRF competition against biotin-IKKβKK/RR(701-745) on GST-NEMO
Recombinant GST-NEMO (from plasmid pGEX4T3-NEMO(1-196)), sequence (Q9Y6K9 1-196): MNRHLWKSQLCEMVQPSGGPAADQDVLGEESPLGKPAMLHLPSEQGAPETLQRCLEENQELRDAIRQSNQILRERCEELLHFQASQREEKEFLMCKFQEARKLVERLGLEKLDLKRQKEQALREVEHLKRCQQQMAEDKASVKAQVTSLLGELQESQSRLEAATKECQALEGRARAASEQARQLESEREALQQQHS

[2] = biological target: Recombinant GST-NEMO (from plasmid pGEX4T3-NEMO(1-196)) (UniProt Q9Y6K9); assay: HTRF competition IC50 against peptide 7
[3] = biological target: Recombinant GST-NEMO (from plasmid pGEX4T3-NEMO(1-196)) (UniProt Q9Y6K9); assay: HTRF competition IC50 against peptide 7; upper end tied to peptide 12 by Table 5 (3.0 vs 1.0 µM)
[4] = biological target: Recombinant GST-NEMO (from plasmid pGEX4T3-NEMO(1-196)) (UniProt Q9Y6K9); assay: HTRF competition against biotin-IKKβKK/RR(701-745) on GST-NEMO; lower end tied to peptide 2 by the same paragraph
[5] = biological target: Recombinant GST-NEMO (from plasmid pGEX4T3-NEMO(1-196)) (UniProt Q9Y6K9); assay: HTRF competition IC50, peptide 7 against peptide 6
[6] = biological target: Recombinant GST-NEMO (from plasmid pGEX4T3-NEMO(1-196)) (UniProt Q9Y6K9); assay: HTRF competition IC50 against peptide 7; lower end tied to peptide 13 by Table 5 (1.7 vs 1.0 µM)

Row | Molecule | IC50 [1] | also measured
1 | Trimesoyl-AGWIY[Dap]F[2Nal]R[dR]R[Dap][βAla][βAla]K (linker N-6-12 via Tm) [peptide 9, Tm(AGWIY)Δ(FΦRrRΔ)-BBK] | 2200 nM | –
2 | Trimesoyl-AWIYA[Dap]F[2Nal]R[dR]R[Dap][βAla][βAla]K (linker N-6-12 via Tm) [peptide 11, Tm(AWIYA)Δ(FΦRrRΔ)-BBK] | 1200 nM | –
3 | Trimesoyl-GAAAA[Dap]F[2Nal]R[dR]R[Dap][βAla][βAla]K (linker N-6-12 via Tm) [peptide 21, Tm(GAAAA)Δ(FΦRrRΔ)-BBK] | – | fold lower NEMO-binding affinity (against peptide 7) [2]: > 100 fold
4 | Trimesoyl-GWIY[Dap]F[2Nal]RRRR[Dap][βAla][βAla]K (linker N-5-12 via Tm) [peptide 3, Tm(GWIY)Δ(FΦRRRRΔ)-BBK] | 1500 nM | –
5 | Trimesoyl-GWIY[dA][Dap]F[2Nal]R[dR]R[Dap][βAla][βAla]K (linker N-6-12 via Tm) [peptide 8, Tm(GWIYa)Δ(FΦRrRΔ)-BBK] | 2900 nM | –
6 | Trimesoyl-GWIY[Dap]F[2Nal]RRR[Dap][βAla][βAla]K (linker N-5-11 via Tm) [peptide 2, Tm(GWIY)Δ(FΦRRRΔ)-BBK] | 3400 nM | IC50 [4]: 3400 to 28000 nM
7 | Trimesoyl-GWIYA[Dap]F[2Nal]R[dR]R[Dap][βAla][βAla]K (linker N-6-12 via Tm) [peptide 7, Tm(GWIYA)Δ(FΦRrRΔ)-BBK] | 1000 nM | fold increase in binding affinity (against peptide 6) [5]: 5.9 fold
8 | Trimesoyl-GWIY[Dap]F[2Nal]R[dR]R[Dap][βAla][βAla]K (linker N-5-11 via Tm) [peptide 6, Tm(GWIY)Δ(FΦRrRΔ)-BBK] | 5900 nM | –
9 | Trimesoyl-[dA]GWIY[Dap]F[2Nal]R[dR]R[Dap][βAla][βAla]K (linker N-6-12 via Tm) [peptide 10, Tm(aGWIY)Δ(FΦRrRΔ)-BBK] | 2300 nM | –

Now from value to molecule, other results behind:

Row | IC50 [1] | Molecule | also measured
10 | 1200 nM | peptide 19, Tm(GWIYA)Δ(FΦRrRΔ)-BBK (as printed) | –
11 | 16000 nM | Trimesoyl-GAIAA[Dap]F[2Nal]R[dR]R[Dap][βAla][βAla]K (linker N-6-12 via Tm) [peptide 20, Tm(GAIAA)Δ(FΦRrRΔ)-BBK] | fold lower NEMO-binding affinity (against peptide 7) [2]: 16 fold
12 | 3000 nM | Trimesoyl-GAIYA[Dap]F[2Nal]R[dR]R[Dap][βAla][βAla]K (linker N-6-12 via Tm) [peptide 12, Tm(GAIYA)Δ(FΦRrRΔ)-BBK] | fold decrease in potency (against peptide 7) [3]: 2 to 3 fold
13 | 1900 nM | Trimesoyl-GWIYA[Dap]A[2Nal]R[dR]R[Dap][βAla][βAla]K (linker N-6-12 via Tm) [peptide 15, Tm(GWIYA)Δ(AΦRrRΔ)-BBK] | –
14 | 1100 nM | Trimesoyl-GWIYA[Dap]F[2Nal]A[dR]R[Dap][βAla][βAla]K (linker N-6-12 via Tm) [peptide 17, Tm(GWIYA)Δ(FΦArRΔ)-BBK] | –
15 | 2800 nM | Trimesoyl-GWIAA[Dap]F[2Nal]R[dR]R[Dap][βAla][βAla]K (linker N-6-12 via Tm) [peptide 14, Tm(GWIAA)Δ(FΦRrRΔ)-BBK] | –
16 | 1700 nM | Trimesoyl-GWAYA[Dap]F[2Nal]R[dR]R[Dap][βAla][βAla]K (linker N-6-12 via Tm) [peptide 13, Tm(GWAYA)Δ(FΦRrRΔ)-BBK] | fold decrease in potency (against peptide 7) [6]: 2 to 3 fold
17 | 2100 nM | Trimesoyl-GWIYA[Dap]F[2Nal]R[dA]R[Dap][βAla][βAla]K (linker N-6-12 via Tm) [peptide 18, Tm(GWIYA)Δ(FΦRaRΔ)-BBK] | –
